The text below walks through data of patent publication US20040203067.

The series deals with STAT-3 (endogenous, in 32Dcl3-derived cells) (UniProt P42227).
STAT-3 (endogenous, in 32Dcl3-derived cells), sequence (P42227 2-770): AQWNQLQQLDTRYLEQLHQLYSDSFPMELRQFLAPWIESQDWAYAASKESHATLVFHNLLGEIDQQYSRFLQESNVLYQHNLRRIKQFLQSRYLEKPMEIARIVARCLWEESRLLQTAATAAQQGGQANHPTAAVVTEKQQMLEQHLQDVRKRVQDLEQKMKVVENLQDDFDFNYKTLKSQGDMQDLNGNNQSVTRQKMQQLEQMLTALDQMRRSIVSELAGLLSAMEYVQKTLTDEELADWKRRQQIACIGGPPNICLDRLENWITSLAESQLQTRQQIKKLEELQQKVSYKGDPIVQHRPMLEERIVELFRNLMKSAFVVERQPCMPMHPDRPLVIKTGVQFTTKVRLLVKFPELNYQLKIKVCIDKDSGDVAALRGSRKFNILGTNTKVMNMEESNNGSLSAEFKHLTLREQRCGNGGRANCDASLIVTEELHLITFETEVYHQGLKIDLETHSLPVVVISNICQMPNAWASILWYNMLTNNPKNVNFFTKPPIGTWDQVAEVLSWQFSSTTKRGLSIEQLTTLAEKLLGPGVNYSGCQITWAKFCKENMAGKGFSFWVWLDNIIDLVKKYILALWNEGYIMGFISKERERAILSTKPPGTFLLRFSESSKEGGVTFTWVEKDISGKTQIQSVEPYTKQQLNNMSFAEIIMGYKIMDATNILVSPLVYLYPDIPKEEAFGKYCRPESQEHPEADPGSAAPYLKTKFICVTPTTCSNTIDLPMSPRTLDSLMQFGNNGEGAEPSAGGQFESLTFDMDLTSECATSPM

As for “c-Src (endogenous, activated, in IL-3 stimulated 32Dcl3 cells)”, the “tyrosine phosphorylation of STAT-3 (4G10 Western blot of STAT-3 immunoprecipitates)” value is listed as “phosphorylation of STAT-3 following IL-3 stimulation of 32Dcl3 cells is blocked by AMSrc”.
